From patent US20250129419A1, “REAGENTS FOR LABELING BIOMOLECULES AND USES THEREOF” (Ultima Genomics, Inc., priority 2022, published 2025)

Experiments:
[1] = evaluation of dye-labeled nucleotides including guanine (sequencing assay); settings: lacks the hyp10 linker
Description: Nucleotides including guanine or analogs thereof may perform more poorly in sequencing applications (e.g., as described herein) in base-calling accuracy. This may be related to photoinduced electron transfer from the nucleobase to a dye linked to the nucleobase, which may quench signal emitted by the dye and thus less dynamic range of signal. Accordingly, various dye-labeled nucleotides including guanine or analogs thereof are prepared and evaluated as provided herein. Examples of such dye-labeled nucleotides include:
Several of the structures shown above include the hyp10 linker which includes the sequence Gly-Hyp-Hyp-Hyp-Hyp-Hyp-Hyp-Hyp-Hyp-Hyp-Hyp from the N-terminal end. […] The remaining dye-labeled nucleotides are evaluated in a sequencing assay, as described herein. […] Additional structures including different numbers of hydroxyprolines, including hyp20 and hyp30 moieties, may also be incorporated into fluorescent labeling reagents.

[2] = molecular target: bovine serum albumin (BSA) (Bos taurus, UniProt P02769); experiment: fluorescence of BSA labeled with different ATTO 532 labeling moieties; settings: BSA labeled with ATTO 532, FIG. 16
Sequence of bovine serum albumin (BSA) (P02769 25-607): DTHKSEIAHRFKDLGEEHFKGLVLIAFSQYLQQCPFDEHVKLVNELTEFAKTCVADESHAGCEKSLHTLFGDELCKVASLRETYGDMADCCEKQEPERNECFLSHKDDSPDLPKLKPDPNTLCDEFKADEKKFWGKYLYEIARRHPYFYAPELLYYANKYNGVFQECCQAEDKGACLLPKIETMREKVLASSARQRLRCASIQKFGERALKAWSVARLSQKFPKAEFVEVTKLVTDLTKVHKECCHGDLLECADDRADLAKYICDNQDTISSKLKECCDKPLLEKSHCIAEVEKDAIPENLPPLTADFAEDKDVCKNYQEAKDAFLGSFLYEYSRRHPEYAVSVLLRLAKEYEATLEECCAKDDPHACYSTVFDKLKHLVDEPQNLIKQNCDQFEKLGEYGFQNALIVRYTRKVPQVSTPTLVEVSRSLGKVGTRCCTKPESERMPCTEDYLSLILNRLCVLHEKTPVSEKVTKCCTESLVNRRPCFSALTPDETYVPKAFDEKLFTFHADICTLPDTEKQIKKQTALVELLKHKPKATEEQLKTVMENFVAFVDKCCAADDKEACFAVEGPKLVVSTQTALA
Excerpt: The effect of functional separation between an optically detectable moiety (e.g., fluorescent dye) and a substrate was investigated using bovine serum albumin (BSA). BSA was fluorescently labeled with ATTO 532 according to the following schemes: in the absence of a linker providing separation between the BSA and ATTO 532 moieties (“Atto532”), using PEG16 as a linker to provide separation between the BSA and ATTO 532 moieties (“Atto532-PEG16”), using a hyp10 moiety to provide separation between the BSA and ATTO 532 moieties (“Atto532-hyp10”), and using a hyp30 moiety to provide separation between the BSA and ATTO 532 moieties (“Atto532-hyp30”). Labeled BSA was purified from free dye using Millipore centrifugal filters.

With `CCN1CCCc2cc3c(cc21)C(C)(C)C1=CC(=[N+](C)C)C=CC1=C3c1ccccc1C(=O)N(C)CCCC(=O)NC(CS(=O)(=O)[O-])C(=O)NCCSSCCC(=O)NCC#Cc1cn([C@H]2C[C@@H](O)[C@@H](COP(=O)(O)OP(=O)(O)OP(=O)(O)O)O2)c2nc(N)[nH]c(=O)c12` (some centres unmarked) [G4] the quenching [1] was “highly quenched”.

For “Atto532-PEG16: BSA labeled with ATTO 532 using PEG16 as a linker [reference compound]”, the “self-quenching on BSA protein” value [2] was “did not improve quenching over ATTO 532 alone”.
